± gives the uncertainty stated by the source.
Assay: protein stability index of a GFP-peptide fusion (yeast GPS) (PSI 1-4); higher = more stable; sorted into four equal gates, so the index is relative within each strain
Outline: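 Tiled 17-residue yeast protein peptides were fused downstream of GFP in a plasmid that also expresses Cherry, and the pooled library was carried in yeast. Mid-log cultures in leucine-free medium were sorted into four equal gates by GFP/Cherry fluorescence ratio, and plasmids from each gate were PCR-amplified and Illumina-sequenced, with reads assigned to strains by barcodes. The protein stability index for each peptide was each gate's read frequency times its gate number, summed.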

Row | Sequence | protein stability index (doa10∆) | protein stability index (pdr5∆) | protein stability index (san1∆) | protein stability index (ubr1∆)
1 | AELDDCRGVSENVILGQ [RPO21] | 3.64 ± 0.14 | 3.68 ± 0.16 | 3.24 ± 0.07 | 3.56 ± 0.2
2 | LILTSHNMKAYYKKFLI [BRR2] |  |  |  | 2.54 ± 0.14
3 | KFLNFRPPNGIKNFKSL [SSN2] | 1.87 ± 0.04 | 1.83 ± 0.04 | 2.16 ± 0.061 | 1.79 ± 0.031
4 | EKKPAAKKTSTSVDGKK [HTB2] | 2.38 ± 0.2 | 2.94 ± 0.15 | 2.72 ± 0.19 | 2.55 ± 0.2
5 | YSSKPYKVDNMTRILPQ [RPN2] | 2.62 ± 0.073 | 2.88 ± 0.072 | 2.62 ± 0.082 | 2.31 ± 0.067
6 | WVYKTKGDGMTSAVASI [RPN1] | 2.75 ± 0.27 | 3.14 ± 0.19 | 2.57 ± 0.23 | 2.97 ± 0.14
7 | KQFDSIFNSNKAKIIPG [SIR4] | 2.32 ± 0.046 | 2.33 ± 0.047 | 2.69 ± 0.064 | 2.65 ± 0.041
8 | NLLLRELNVEKLNTFNL [SRP72] | 2.71 ± 0.15 | 3.41 ± 0.2 | 2.95 ± 0.099 | 2.95 ± 0.13
9 | MAPNTSRKQKVIKTLTV [RPL22B] | 2.1 ± 0.18 | 2 ± 0.088 | 2.6 ± 0.13 | 1.97 ± 0.093
10 | FTNRIPSKTPEVYMRYR [SWI3] | 2.08 ± 0.052 | 1.88 ± 0.057 | 2.35 ± 0.068 | 2.03 ± 0.054
11 | RGIPRLSEDELRELDVE [SMC4] | 3.44 ± 0.14 | 3.68 ± 0.21 | 3.36 ± 0.14 | 3.57 ± 0.11
12 | MGENEKPDVTYADVGGL [RPT3] | 3.07 ± 0.18 | 3.41 ± 0.074 | 3.28 ± 0.1 | 3.31 ± 0.079
13 | TAAFTAMICEAKGLIEN [YJR042W/NUP85] | 2.62 ± 0.067 | 2.86 ± 0.06 | 2.72 ± 0.068 | 2.94 ± 0.052
14 | EIINNKTSSQTSLSSKD [YMR153W/NUP53] | 2.33 ± 0.067 | 2.12 ± 0.073 | 2.34 ± 0.12 | 2.45 ± 0.045
15 | KLDQDDEIYIPINGNEA [CSI1] | 3.24 ± 0.15 | 3.46 ± 0.091 | 3.19 ± 0.09 | 3.45 ± 0.072
16 | LDGELDFDDFLKLGLVE [RET1] | 3.36 ± 0.16 | 3.08 ± 0.12 | 2.81 ± 0.13 | 2.56 ± 0.17
17 | VSQVRVVPNEKADDDSV [ASC1] | 2.72 ± 0.17 | 3.11 ± 0.15 | 3.06 ± 0.11 | 2.6 ± 0.08
18 | DNEQNLESDFVTGASQF [PRE2] | 2.92 ± 0.095 | 3.33 ± 0.098 | 3.23 ± 0.077 | 2.96 ± 0.076
19 | KDIAKRQFKEILTVKEE [RRP40] | 2.2 ± 0.045 | 2.4 ± 0.048 | 2.46 ± 0.057 | 2.52 ± 0.042
20 | TGDADEPELRVLSTEEI [RPO21] | 3.59 ± 0.13 | 3.25 ± 0.099 | 3.49 ± 0.064 | 3.43 ± 0.06
21 | LKFFLVDENETVLESLG [LIN1] | 3.26 ± 0.27 | 2.94 ± 0.092 | 2.9 ± 0.18 | 3.04 ± 0.15
22 | EKLLETNVSKQNDFLFS [ECM29] | 2.64 ± 0.1 | 2.97 ± 0.093 | 1.53 ± 0.16 | 1.76 ± 0.089
23 | IWRKVPGDVLDKDAFIP [SNU114] | 3.6 ± 0.28 |  |  | 
24 | SYLSNSLDTSASTINGA [YML103C/NUP188] | 2.31 ± 0.058 | 1.78 ± 0.063 | 1.76 ± 0.065 | 1.84 ± 0.06
25 | YVTKPMVNESDGVTHAL [RPB2] | 3.2 ± 0.088 | 3.28 ± 0.087 | 2.94 ± 0.081 | 3.36 ± 0.082
26 | RVVYLKHLEDNTLLVTG [RPL6B] | 1.89 ± 0.29 | 1.12 ± 0.095 | 1.15 ± 0.2 | 1.16 ± 0.2
27 | DNSFNELTDNMSDFVPI [MCD1] | 2.95 ± 0.082 | 3 ± 0.089 | 2.92 ± 0.052 | 3.23 ± 0.064
28 | IYRYKYKVMHQIRACKD [PRP8] | 2.56 ± 0.099 | 2.14 ± 0.086 | 2.45 ± 0.078 | 1.99 ± 0.088

Row | Sequence | protein stability index (doa10∆) | protein stability index (pdr5∆) | protein stability index (san1∆) | protein stability index (ubr1∆)
29 | TSRTIVRNVKGPVREND [RPS28A] | 3.4 ± 0.11 | 3.16 ± 0.1 | 3.59 ± 0.11 | 3.27 ± 0.086
30 | ISNNLALVFAALEHLKN [SRP68] | 1.95 ± 0.051 | 1.8 ± 0.041 | 2.12 ± 0.052 | 2.09 ± 0.041
31 | DLYHFALNYENEAGRKL [SNF2] | 2.94 ± 0.16 | 3.13 ± 0.098 | 3.26 ± 0.083 | 3.76 ± 0.26
32 | QQVEGKLSQMILDKIFY [RPN6] | 2.81 ± 0.074 | 2.84 ± 0.081 | 3.01 ± 0.096 | 2.94 ± 0.062
33 | AIQLDYSTANEYIIAAI [RPN3] | 2.24 ± 0.058 | 2.09 ± 0.073 | 2.32 ± 0.094 | 2.47 ± 0.056
34 | RSPPRPPSLKIIDGPKA [PRP28] | 2.23 ± 0.07 | 2.27 ± 0.079 | 1.98 ± 0.094 | 1.74 ± 0.041
35 | WVQLVQIIVTDGKLEPS [YJL039C/NUP192] | 1.27 ± 0.065 | 1.32 ± 0.085 | 1.19 ± 0.098 | 1.27 ± 0.07
36 | IKWENAFVSVYSKNNPN [PRP8] | 2.11 ± 0.057 | 2.77 ± 0.05 | 3.07 ± 0.053 | 2.61 ± 0.031
37 | MTPLLVNCLELLINTNF [PCI8] | 1.6 ± 0.037 | 1.6 ± 0.042 | 1.48 ± 0.078 | 1.42 ± 0.057
38 | SQLDLFLRTMKLTSEET [GRR1] | 2.77 ± 0.055 | 2.7 ± 0.052 | 3 ± 0.06 | 3.09 ± 0.043
39 | TVIRGNSIISLEALDAI [SMX2] | 2.79 ± 0.075 | 2.43 ± 0.09 | 2.15 ± 0.11 | 2.57 ± 0.055
40 | YGYFSVGKRVPIVEDRR [SIR4] | 3.12 ± 0.12 | 2.28 ± 0.1 | 2.16 ± 0.13 | 2.75 ± 0.26
41 | AQTIGRNSKTVREFLEK [PRE6] | 2.76 ± 0.2 | 3.27 ± 0.29 | 3.29 ± 0.07 | 3.02 ± 0.14
42 | IFRGSLIGCIPYSKNAV [YDL088C/ASM4] | 2.18 ± 0.062 | 2.51 ± 0.09 | 2.14 ± 0.13 | 2.19 ± 0.068
43 | DNKMDSVKEDVKNNQEL [SMC4] | 2.85 ± 0.14 | 3.02 ± 0.084 | 2.51 ± 0.17 | 3.36 ± 0.14
44 | VTPEDVMTISSLEQRTL [RPC82] | 3.2 ± 0.084 | 3.1 ± 0.076 | 3.06 ± 0.061 | 3.25 ± 0.073
45 | SLKNTDALLNSTTEHIN [YJL039C/NUP192] | 1.9 ± 0.15 | 2.49 ± 0.094 | 2.13 ± 0.12 | 2.42 ± 0.16
46 | ADVSIKSILQEIRRSLS [POP5] | 1.59 ± 0.08 | 2.66 ± 0.083 | 2.44 ± 0.14 | 1.32 ± 0.06
47 | KTPNRSSTPKFTKKPVT [SIR4] | 2.77 ± 0.082 | 2.81 ± 0.082 | 2.91 ± 0.056 | 2.94 ± 0.054
48 | QLPVGFKNMGNTCYLNA [UBP6] | 2.16 ± 0.073 | 1.76 ± 0.079 | 1.48 ± 0.12 | 1.6 ± 0.084
49 | LLKDDTYQLCVRLRSNV [RPN3] | 1.47 ± 0.076 | 1.85 ± 0.29 |  | 1.25 ± 0.2
50 | YCHEKELTIIKNPRVTK [CSN9] | 2.55 ± 0.098 | 2.29 ± 0.18 | 2.14 ± 0.2 | 2.13 ± 0.13
51 | ELNSSEDILEDMNSNLQ [SMC1] | 3.38 ± 0.072 | 3.32 ± 0.072 | 3.24 ± 0.045 | 3.2 ± 0.054
52 | ALCKNRKCQFRTPDSIS [POP1] | 2.31 ± 0.053 | 2.77 ± 0.058 | 2.28 ± 0.082 | 1.94 ± 0.036
53 | IDYLQRNDKTLELMDSK [POP1] | 3.06 ± 0.096 | 3.19 ± 0.14 | 2.64 ± 0.25 | 3.24 ± 0.14
54 | NLGSRTKNNTQASGITA [SSN3] | 2.44 ± 0.065 | 2.38 ± 0.045 | 2.18 ± 0.054 | 2.65 ± 0.043
55 | EEASQQQQLQQNSKEKN [MED2] | 2.85 ± 0.092 | 2.85 ± 0.086 | 2.92 ± 0.071 | 2.83 ± 0.065

From the supplement of paper PMC9732359
